Assay [1] deals with HOIP PUB domain (aa 1–184) Y82F (UniProt Q96EP0 1-184, Y82F). Kind of assay: FP.
For assay [2], the target named is HOIP PUB domain (aa 1–184) N85A (UniProt Q96EP0 1-184, N85A). Kind of assay: FP.
The target in assay [3] is T1, HOIP PUB domain (aa 1–184) Y82F (UniProt Q96EP0 1-184, Y82F).
T1 sequence (looked up): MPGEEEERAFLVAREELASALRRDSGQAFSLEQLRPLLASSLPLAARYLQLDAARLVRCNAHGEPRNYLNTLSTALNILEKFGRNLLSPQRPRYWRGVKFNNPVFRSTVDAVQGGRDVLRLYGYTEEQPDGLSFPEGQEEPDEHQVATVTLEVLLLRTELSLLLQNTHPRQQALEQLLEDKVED
Kind of assay: fluorescence polarisation; serially diluted PUB domains and HOIP variants mixed with an equal volume of 100 nM FITC-Ahx-labeled peptide; one-site binding model; triplicate. The following applies: both partners purified. (In general: In fluorescence polarisation assays a small probe gives low polarisation when free and higher when bound to something large.)

Another assay addresses T2, PNGase PUB domain R55A (UniProt Q96IV0 11-109, Arg55 was mutated to Ala).
T2 construct: PNGase PUB domain with Arg55 mutated to Ala; also called PNGase mutant; Arg55 mutated to Ala
T2 sequence (looked up): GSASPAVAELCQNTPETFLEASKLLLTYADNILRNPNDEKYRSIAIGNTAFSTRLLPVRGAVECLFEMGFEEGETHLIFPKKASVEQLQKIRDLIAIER
The assay is described as above. The following applies: both partners purified.

Assay [4] concerns the target T3, HOIP PUB domain (aa 1–184) V104A (UniProt Q96EP0 1-184, V104A).
T3 sequence (looked up): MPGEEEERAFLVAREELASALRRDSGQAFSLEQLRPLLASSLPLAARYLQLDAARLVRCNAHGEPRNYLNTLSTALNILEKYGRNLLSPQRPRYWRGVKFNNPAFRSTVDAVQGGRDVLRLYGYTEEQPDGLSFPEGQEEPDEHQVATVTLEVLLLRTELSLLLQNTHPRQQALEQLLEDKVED
The assay is described as above. The following applies: both partners purified.

The target in assay [5] is T4, HOIP PUB domain (aa 1–184) N85A (UniProt Q96EP0 1-184, N85A).
T4 sequence (looked up): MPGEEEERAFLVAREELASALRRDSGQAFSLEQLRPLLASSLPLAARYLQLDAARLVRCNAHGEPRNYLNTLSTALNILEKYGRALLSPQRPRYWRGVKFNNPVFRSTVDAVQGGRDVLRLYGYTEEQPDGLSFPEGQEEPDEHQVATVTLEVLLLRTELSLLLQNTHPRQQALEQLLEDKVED
The assay is described as above. The following applies: both partners purified.

In the next assay the target is T5, HOIP PUB domain K99R (UniProt Q96EP0 1-184, K99R).
T5 construct: HOIP PUB domain with K99R
T5 sequence (looked up): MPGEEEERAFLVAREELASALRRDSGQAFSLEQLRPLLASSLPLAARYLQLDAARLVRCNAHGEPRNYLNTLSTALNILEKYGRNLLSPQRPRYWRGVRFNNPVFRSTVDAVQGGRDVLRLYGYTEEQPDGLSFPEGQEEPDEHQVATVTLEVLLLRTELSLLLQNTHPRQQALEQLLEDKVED
The assay is described as above. The following applies: both partners purified.

The next assay deals with T6, HOIP PUB domain N101R (UniProt Q96EP0 1-184, N101R).
T6 construct: HOIP PUB domain with N101R
T6 sequence (looked up): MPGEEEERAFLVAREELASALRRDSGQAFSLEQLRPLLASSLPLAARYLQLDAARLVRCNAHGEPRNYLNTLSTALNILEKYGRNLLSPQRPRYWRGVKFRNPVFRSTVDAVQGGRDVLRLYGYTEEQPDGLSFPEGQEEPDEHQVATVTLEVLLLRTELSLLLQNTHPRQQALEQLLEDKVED
The assay is described as above. The following applies: both partners purified.

The target of assay [6] is T7, HOIP extended PUB domain (aa 1–184) (UniProt Q96EP0 1-184).
T7 construct: 15N- or 13C,15N-labelled for NMR; Construct details are in the Supplemental Experimental Procedures; also called HOIP PUB domain
T7 sequence (looked up): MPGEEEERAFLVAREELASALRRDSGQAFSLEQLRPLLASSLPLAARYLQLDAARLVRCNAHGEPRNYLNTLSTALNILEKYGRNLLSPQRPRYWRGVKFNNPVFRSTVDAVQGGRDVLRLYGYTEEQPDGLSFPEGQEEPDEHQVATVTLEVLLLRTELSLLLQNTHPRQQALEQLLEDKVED
Described as above. The following applies: both partners purified.

The target in assay [7] is T8, PNGase PUB domain (aa 11–109) (UniProt Q96IV0 11-109).
T8 construct: PNGase (peptide:N-glycanase), PUB domain, residues 11-109
T8 sequence (looked up): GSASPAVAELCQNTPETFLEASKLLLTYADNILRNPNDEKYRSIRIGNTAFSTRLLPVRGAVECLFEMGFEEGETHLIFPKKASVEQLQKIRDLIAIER
The description is as above. The following applies: both partners purified.

The target in assay [8] is T9, UBXD1 PUB domain (aa 150–264) (UniProt Q9BZV1 150-264).
T9 construct: UBXD1, PUB domain, residues 150-264; also called minimal UBXD1 PUB domain
T9 sequence (looked up): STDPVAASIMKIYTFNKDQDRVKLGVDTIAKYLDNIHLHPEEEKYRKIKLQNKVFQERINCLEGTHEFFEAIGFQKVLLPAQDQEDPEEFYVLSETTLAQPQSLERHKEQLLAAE
Described as above. The following applies: both partners purified.

Assay [9] concerns the target T7, HOIP extended PUB domain (aa 1–184). Kind of assay: fluorescence polarisation; competition assay: p97 PIM peptide competes with the OTULIN PIM for the HOIP PIM pocket. The following applies: both partners purified.

Where “and” joins values, the source holds several entries; their conditions need not be identical. Identical values can stand only once. No end group written: not given here. *: point of attachment. FITC = O=C1OC2(c3ccc(O)cc3Oc3cc(O)ccc32)c2ccc(NC(=S)*)cc21; Ahx = NCCCCCC(=O)O

B1: FITC-Ahx-labeled OTULIN PIM peptide (aa 49–67) (peptide, UniProt Q96BN8 49-67, looked up)
peptide: {FITC-Ahx}-AEHEEDMYRAADEIEKEKE
notes: OTULIN, residues 49-67, holds the EEDMYR motif (residues 52-57); also called OTULIN peptide; wild-type OTULIN PIM peptide
For the molecule B1, the dissociation constant (Kd) stood at 9.38 µM in assay [1], 1.04 µM in [2], 43 µM in the assay with PNGase PUB domain R55A and 0.1 µM with HOIP PUB domain N101R. Also, the binding result (in [3]; in assay [4]; in [5]; with HOIP PUB domain K99R) was “binds” throughout.

B2: FITC-Ahx-labeled p97 PIM peptide (aa 797–806) (peptide, UniProt P55072 797-806, looked up)
peptide: {FITC-Ahx}-TEDNDDDLYG
notes: p97 (VCP), C-terminal residues 797-806; also called p97 peptide; fluorescent p97 PIM peptide
As for B2, the Kd in assay [6] was 7.6 µM and 6 µM; in assay [7], 3 µM; in [8], 12 µM; with HOIP PUB domain N101R it was 0.9 µM. Besides, in the assay with HOIP PUB domain K99R, the binding result is given as “binds”.

B3: unlabeled p97 PIM peptide (peptide, UniProt P55072 797-806, looked up)
peptide: TEDNDDDLYG
notes: p97 (VCP) PIM peptide; also called p97 peptide
For the molecule B3, the inhibitory constant (Ki) in [9] came out at 37 µM.

What is called Kd is the free concentration of one partner at which half of the binding sites on the other are occupied at equilibrium, for simple one-to-one binding. A low value points to higher affinity. As a reminder, the Ki is a dissociation constant, usually derived from enzyme kinetics or from competition with a known ligand.

Values taken from publication PMC4017264 (Molecular Cell, 2014).
